These results are taken from patent publication CN113501876A (WEST CHINA HOSPITAL SICHUAN UNIV, dated 2021).

One assay concerns the target T1, 蛋白激酶p38δ (p38δ-2×Strep) (Homo sapiens (Human), UniProt O15264 1-365).
T1 construct: Expressed from pET28a-p38δ-2×Strep in E. coli BL21(DE3) and purified on MagStrep beads; The tag is placed C-terminal on the strength of the vector name only; Any further vector residues are not described; not shown: 2×Strep tag
T1 sequence: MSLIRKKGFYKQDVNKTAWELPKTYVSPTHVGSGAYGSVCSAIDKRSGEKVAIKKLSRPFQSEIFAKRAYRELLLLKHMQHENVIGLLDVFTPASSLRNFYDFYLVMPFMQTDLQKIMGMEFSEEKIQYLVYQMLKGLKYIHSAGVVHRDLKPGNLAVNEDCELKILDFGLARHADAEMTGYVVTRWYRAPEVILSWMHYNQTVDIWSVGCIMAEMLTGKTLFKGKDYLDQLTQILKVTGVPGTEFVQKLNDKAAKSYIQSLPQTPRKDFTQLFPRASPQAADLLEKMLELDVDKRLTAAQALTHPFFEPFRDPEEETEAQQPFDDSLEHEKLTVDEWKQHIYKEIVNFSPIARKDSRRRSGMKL
The experiment in a line: indirect ELISA, p38δ coated, nanobody at 0-6.4 μM, anti-FLAG detection, 4-parameter fit.

A further assay concerns the target T2, p38γ (p38γ-2×Strep) (Homo sapiens (Human), UniProt P53778 1-367).
T2 construct: Expressed from pET28a-p38γ-2×Strep in E. coli; not shown: 2×Strep tag
T2 sequence: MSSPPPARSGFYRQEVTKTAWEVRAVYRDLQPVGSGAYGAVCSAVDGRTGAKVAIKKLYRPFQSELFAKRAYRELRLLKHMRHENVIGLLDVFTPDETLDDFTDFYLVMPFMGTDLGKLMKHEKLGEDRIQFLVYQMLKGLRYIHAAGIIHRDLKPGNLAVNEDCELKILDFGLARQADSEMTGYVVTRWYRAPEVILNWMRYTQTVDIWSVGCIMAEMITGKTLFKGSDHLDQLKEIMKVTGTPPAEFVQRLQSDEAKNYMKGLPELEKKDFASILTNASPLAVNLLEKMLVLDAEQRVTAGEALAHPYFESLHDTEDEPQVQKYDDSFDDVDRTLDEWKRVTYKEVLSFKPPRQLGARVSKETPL
Description: ELISA, p38 proteins coated on the plate, nanobody periplasmic extract, anti-FLAG detection, OD450.

B1: 纳米抗体Nb13-1 (VHH)
VHH: QVQLVESGGALVQPGGSLRLSCAASGWWGQRGWLRWYRQAPGKEREWVCGISLRRNRYSYEDSVKGRFTCSRDDARNTVYLQLNSLKPEDTAVYYCAPLSLLHDEDNHSSNYWGQGTQVTVSS
notes: Expressed from pET22b-NB-FLAG in E. coli BL21(DE3); It was used as periplasmic extract in several assays; also called 特异性结合蛋白激酶p38δ的纳米抗体; not shown: C-terminal FLAG tag fused in pET22b
The molecule B1 gave a Kd with 蛋白激酶p38δ (p38δ-2×Strep) of 1320 nM. In addition, the binding result with p38γ (p38γ-2×Strep) is reported as “no binding”.
